{"source": "a protein production outcome set (Wang et al. 2014)", "assay": "label from the status in PepcDB records", "data": [{"sequence": "VNSVAARVTELTGREVAAVAERGHSHRWHLYRVELADGTPLFVKALPDDAPALDGLFRAEALGLDWLGRSFGSPVPQVAGWDDRTLAMEWVDERPPTPEAAERFGHQLAAMHLAGAESFGATWDGYIGPLPMDNTPRSTWPEFYAEQRILPYLRRAADRGALTPGDVRLVEKVLDALDHLAGDPEPPARIHGDLWNGNVLWQDDGAVVIDPAAHGGHREADLAMLALFGLPYLDRVRDAYNEVAPLAEGWRARIPLHQLHPLLVHVCLFGAAYRTTLVDTARAALRA", "values": [{"measurement": "protein production", "value": "not failed"}]}, {"sequence": "VPPPGTMVMVERKVGSWVDGQPIDLQRDWRSWEQLPDSLKVAVIAGEDQHFAEHHGFDLPAIQQALAHNERGGSIRGASTLSQQVAKNVFLWSGRSWLRKGLEAWFTLLIETLWTKQRILEVYLNSAEWGPGVFGAQAAARYHFGLDAERLSRTQASQLAAVLPSPLKWSAARPGPYVRQRAAWIRQQMWQLGGDDYLLRLER", "values": [{"measurement": "protein production", "value": "failed"}]}, {"sequence": "VQIKNATAIVTGASSGIGLAFASLLAQKGYNLLLIARNINKLNDLAKTLSTQYDTQCNVLSIDLSEENASKKVLEYIITNNLNISVLINNAGFSGNYKFLEADWSQLSKELNVMSIAVTELCYLIAPLMEKNSWGRIINVSSGAAYLPPTQSLLYTGLKSYVLNFSQSLDMELKPKGINVTALCPGFTRSEFHNTMGTNKQVSKVPNFLWQAPDQVA", "values": [{"measurement": "protein production", "value": "failed"}]}, {"sequence": "VQTPALIIVTGHPATGKTTLSQALATGLRLPLLSKDAFKEVMFDGLGWSDREWSRRVGATAIMMLYHTAATILQSGQSLIMESNFRVDLDTERMQNLHTIAPFTPIQIRCVASGDVLVERILSRIAQGARHPGHCDDRSPADLELVRSRGDIPPLPLGGPLLTVDTTFPEQIDMNAIVQWVRQHLQSGTAFL", "values": [{"measurement": "protein production", "value": "not failed"}]}, {"sequence": "VRPDGRGKVTGELKYMTDLSFPGMLYGKVLRSAYPHAEIVSVCTIKAEKMEGVQAVVTHKDVPGLNRFGIVIPDQPVLCEDRVRYVGDAIAAVAAETEEIAEAALELIQVEYKELEVMDSPEKALRPNAQRLHEDGNILHRAFFSNGDVEEGFQASDTVFEETYELPRQMHTYMETEGGVAVPEDDGGFTMYAGTQHGYKDRFQLARIFDIPEEKIRIVSSPMGGSFGGKDELNIQPYAALLALKSGRPVKIHQTRKESVRSGIKRHPMKITIKTGADHSGNLLAHDVKIVADTGAYATLGPAVLDFSVEHAAGPYRIPNIRTEGISVFTNNGVAGEFRGFGGNQITFALETHLDRLSGMLGIDPLELRRKNIRKPHDLGPLEHRIAPTDGAAQVLNAISKSPILKKTSRNCGYLQRGTGAAITMHGGGLGFGRMDAAGGRLSLSSEGKITASFGFEECGQGILAAIEQIVMEELGCAAEDISIVIGDTAKVPKSGSSTASRGTSMVWHAIQRLKKPFLAQLKKRAAEWSGCSAENLIPGAAGLRDKNTKALVVTYKELAEKGPLAEETAFDFPTTPDPVVGGHFLYSFGAAAVEVEVDLLTGDVKLIDCEHAIAAGPVVSPQGYRGQIEGGAAMALGYTLMEEAKMTDGRYAAENLDHYLIPGIKDVPDMKLIAIEDLMKGDVYGPRGVGEIGTIAITPAIVKAVHDAVGCWINKLPISREELLEAIDRKGL", "values": [{"measurement": "protein production", "value": "failed"}]}, {"sequence": "VRPGDTEIDKLVALIDAADKVTLFCGSGTAGAHAEVMEFAEKIKSPVGHALRGKEWIQYDNPYDVGMSGLLGYGAAYEATNECDLLILLGTDFPYNAFLPTDVKIAQVDVRPERLGRRSKLDLAVWGDVRETLRCLIPRVKPKENRRFLDKMLKKHADALEGVIKAYTRKVEK", "values": [{"measurement": "protein production", "value": "failed"}]}, {"sequence": "VSDRPAGRMPLTVHRNVGRWLSEILHASIRDTGVSSRIEFVRRTLHGWVREEYSETELPNAVYRNLYFPVLDAQPAHAGSGKIETISECDRLKNLVRNVTDTLVENYPQGLESEALLIALDGVKLELARIRKDIEMYGDPRKR", "values": [{"measurement": "protein production", "value": "not failed"}]}, {"sequence": "VSIPANNSPVRLALIGAGRWGKNYIRTIAGLPGAALVRLASSNPDNLALVPPGCVIESDWRSVVSAPEVEAVIIATPPATHAEITLAAIASGKAVLVEKPLTLDLAEAEAVAAAAKATGVMVWVEHTQLFNPAWEALKADLTSIGPILAVRSEAGNHGPYRPGGVPMLWDWGAHDVSMVLDLMGRDPDSTSASWAARGEKDGGEAGDVTLTLAFSTVEAHIRLCNTMDKCRRLAVFGEAGTLVMDDRATDKLTLHPPQPDGNWPVGQGHALTVTDEMPLTRAVRLFAGAVRQPEPGPSPLELGLRVVRVLGACS", "values": [{"measurement": "protein production", "value": "not failed"}]}, {"sequence": "VSVIMPVLNEERHLRGAVQAILAQEYDGEMEVVIAIGPSSDRTEEIAAELVREDPRVHTVPNPTGRTPAALNAAIKASRHPVVVRVDGHGMLSPNYIATAVRLLAETGAQNVGGIMHAEGENDWEHAVAAAMTSKIGVGNAAFHTGGEAGPAETVYLGVFRREALEQQGGYNEEFIRAQDWELNFRIREAGGLIWFSPELKVSYRPRPSVRALAKQYKDYGRWRHVVARYHEGSINLRYLAPPTAVCAIAAGVVVGLALTPWGLVVPGGYLAAIALGS", "values": [{"measurement": "protein production", "value": "failed"}]}, {"sequence": "VTLLVKSPNQRHRDLELSGDRGWSVGHLKAHLSRVYPERPRPEDQRLIYSGKLLLDHQCLRDLLPKQEKRHVLHLVCNVK", "values": [{"measurement": "protein production", "value": "not failed"}]}, {"sequence": "VTSDPGTAAPVKRTAEQSRSLIVDAAGRAFATRPYREITLKDIAEDAGVSAPLIIKYFGSKEQLFDALVDFRAAAEIVFSGPLDGLGERMVSMFARPLEPYKPLSLNILFMSGPSEESSRKLRANYSAQMIDALAERLPGRDARLRAELVMSMLTGLAVMRRKMMQEHATGTPEEVVAHYAPLVQELLDG", "values": [{"measurement": "protein production", "value": "not failed"}]}, {"sequence": "VVQRAAETYDLLKQRTEELRRANAQMSLLTVLVQVTQASNSLEAILTPIATAFAESFAVNACILQMLEGQTLSTIQGFYSQQGTVNNWLNQDPLTNEAIATGQIQVAANIAKDPKLASISQYQDNGIQSHVVIPITYRNEMLGVLSLQWQQPISLREDELTLIHLSAQLVAIALTSSRCSL", "values": [{"measurement": "protein production", "value": "not failed"}]}, {"sequence": "WKPELDELARRENFAQQMGGIDKVKRQHDQGRLTVRERIDRLSDAGSFHEIGAVAGLGEYDANGELINLTPANCVFGRAKIDGRTVVVVGDDFTVRGGSADASIHAKPQMAEEMAHDYRLPIIRVIEGSGGGGSVRTIESKGAANLPGGVDGTRWYWYTTAN", "values": [{"measurement": "protein production", "value": "failed"}]}, {"sequence": "WRGIRQRKLHAEELLRLAMAHLRNQGKPVRIVDIAAGHGRYILESLRGVEPLPESILLRDYSDINVRDGSLLIEQKDLEDIARFVKGDAFDRNDLATLDPKPTLAVVSGLYELFSSNQMVGDSLAGLAAAVEPGGYLVYTGQPWHPQLELIARALTSHREGQAWVMRRRSQSEMDQLVEAAGFRKITQRVDEW", "values": [{"measurement": "protein production", "value": "failed"}]}, {"sequence": "WTCNKFRCGEKRLTRSLCACSDDCKDQGDCCINYSSVCQGEKS", "values": [{"measurement": "protein production", "value": "not failed"}]}, {"sequence": "YAMSIYAAQHDVRIVNPYFVPTSSIRKALKRALNRGTKVEIMISSKSDIPFTPDASLYAVQKLMKKGAMIYLYNGGFHHSKIMMVDDLFCTVGTANLNSRSLRYDYETNAFIFDKDITQQLNDVFEADMLHCTRLTPEMWKQKSAWKKFKCWFANLFTPFL", "values": [{"measurement": "protein production", "value": "failed"}]}, {"sequence": "YLYFNSDSFILLIAPTRSGKGVGVVIPNLLVYNQSMVILDLKQENFSITSKYRAKYGQQVFLFNPFTENGQTHRYNPLSYVREGDCKIGDILTITASFYPIDDLKNSFWNNQASNLFLGLALMISETPSLPFTIGELLRQSSGKGKPLKEYLQGIMDDREKSSSPLSESCIDALNRFIALTDNSLSNVLASFNAPLTLWANPLFDAATSANDFDLRELRKKKMTVYIGITPDYLEQAERILNLFFSQLININTKELPEHNPELKYQCLLVMDEFTAMGRIGILAKSVSYMAGYGLRLLTIIQAPSQLDSVYGKEEARTYKTNHAGQILFAPRENEDAEEYSKAIGYKTVKAKSNSKTRGELKQTDSTSDQRRAVMLPQEIKEIGMWKEIICIENLKPIFCKKVQYFNDPVFIDRLKEVSS", "values": [{"measurement": "protein production", "value": "failed"}]}, {"sequence": "YQAIYRRATTYLAMGRGKAAIVDLERVLELKPDFYGARIQRGNILLKQGELEAAEADFNIVLNHDSSN", "values": [{"measurement": "protein production", "value": "failed"}]}, {"sequence": "YTSADNTWEPEENCDCPNLIQKFEESRAKSKKRGEKKPKCEEIQKLRGYERGLELAEIVGATDVTGDIKYLVRWQFCDEFDLVPSAQIVEKDPQMLIDYFQK", "values": [{"measurement": "protein production", "value": "failed"}]}, {"sequence": "YVFTVELERGPSGLGMGLIDGMHTHLGAPGLYIQTLLPGSPAAADGRLSLGDRILEVNGSSLLGLGYLRAVDLIRHGGKKMRFLVAKSDVETAKKIH", "values": [{"measurement": "protein production", "value": "not failed"}]}]}
